According to article PMC9482650, “Quantitative fragmentomics allow affinity mapping of interactomes” (Nature Communications, 2022):

T1: DLG3_3, Q92796
T1 sequence (Q92796 374-475, limits assumed, looked up): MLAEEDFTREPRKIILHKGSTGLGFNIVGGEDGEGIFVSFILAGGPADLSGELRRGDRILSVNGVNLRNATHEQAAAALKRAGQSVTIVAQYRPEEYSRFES

T2: GRIP1_4, Q9Y3R0
T2 sequence (Q9Y3R0 467-571, limits assumed, looked up): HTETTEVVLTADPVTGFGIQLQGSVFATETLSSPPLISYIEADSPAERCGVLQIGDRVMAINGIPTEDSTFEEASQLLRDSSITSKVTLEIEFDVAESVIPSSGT

T3: LIN7C, Q9NUP9
T3 sequence (Q9NUP9 88-185, limits assumed, looked up): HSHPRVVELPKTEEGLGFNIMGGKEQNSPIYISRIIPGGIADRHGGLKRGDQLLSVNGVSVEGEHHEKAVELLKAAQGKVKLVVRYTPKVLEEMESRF

T4: MPDZ_12, O75970
T4 sequence (O75970 1857-1958, limits assumed, looked up): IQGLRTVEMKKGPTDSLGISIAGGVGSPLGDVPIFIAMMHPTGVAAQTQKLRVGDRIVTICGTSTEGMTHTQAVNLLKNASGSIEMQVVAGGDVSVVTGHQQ

T5: PARD3B_1, Q8TEW8
T5 sequence (Q8TEW8 196-299, limits assumed, looked up): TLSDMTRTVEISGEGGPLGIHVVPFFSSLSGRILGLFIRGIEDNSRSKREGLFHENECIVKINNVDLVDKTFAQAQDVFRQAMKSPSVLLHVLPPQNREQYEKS

T6: RHPN1, Q8TCX5
T6 sequence (Q8TCX5 508-602, limits assumed, looked up): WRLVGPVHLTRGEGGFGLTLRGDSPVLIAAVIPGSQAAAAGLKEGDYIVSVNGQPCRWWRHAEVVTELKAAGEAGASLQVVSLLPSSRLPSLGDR

T7: SHANK1, Q9Y566
T7 sequence (Q9Y566 658-767, limits assumed, looked up): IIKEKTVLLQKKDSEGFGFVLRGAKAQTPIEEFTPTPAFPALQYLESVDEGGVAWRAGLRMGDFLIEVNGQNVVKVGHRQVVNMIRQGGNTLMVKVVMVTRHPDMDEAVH

T8: SIPA1L2, Q9P2F8
T8 sequence (Q9P2F8 945-1036, limits assumed, looked up): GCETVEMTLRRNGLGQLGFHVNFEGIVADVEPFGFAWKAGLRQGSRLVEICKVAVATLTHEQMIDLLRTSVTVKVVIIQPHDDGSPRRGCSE


How the values were obtained:
Experiment in all cases: holdup assay
Set-up in all cases: key: below the threshold = too weak to quantify, mostly under pKd 3.1 to 4
Conditions in all cases: plain residues with an end cap or a label only (N-terminal biotin on a linker: ado-ado)
ARHGEF12, Q9NZN5-2 = target: ARHGEF12, Q9NZN5-2
DLG1_2, Q12959 = target: DLG1_2, Q12959
DLG3_3, Q92796 = target: T1, DLG3_3, Q92796
FRMPD2_1, Q68DX3 = target: FRMPD2_1, Q68DX3
FRMPD3, Q5JV73 = target: FRMPD3, Q5JV73
GORASP1, Q9BQQ3 = target: GORASP1, Q9BQQ3
GRID2IP_2, A4D2P6 = target: GRID2IP_2, A4D2P6
GRIP1_4, Q9Y3R0 = target: T2, GRIP1_4, Q9Y3R0
GRIP2_4, Q9C0E4 = target: GRIP2_4, Q9C0E4
HTRA2, O43464 = target: HTRA2, O43464
Inadl_1, Q8NI35 = target: Inadl_1, Q8NI35
Inadl_2, Q8NI35 = target: Inadl_2, Q8NI35
Inadl_6, Q8NI35 = target: Inadl_6, Q8NI35
LDB3, O75112 = target: LDB3, O75112
LIN7C, Q9NUP9 = target: T3, LIN7C, Q9NUP9
LNX1_3, Q8TBB1 = target: LNX1_3, Q8TBB1
MAGI2_2, Q86UL8 = target: MAGI2_2, Q86UL8
MAGI2_6, Q86UL8 = target: MAGI2_6, Q86UL8
MPDZ_12, O75970 = target: T4, MPDZ_12, O75970
NHERF2_2, Q15599 = target: NHERF2_2, Q15599
NHERF4_1, Q86UT5-2 = target: NHERF4_1, Q86UT5-2
NHERF4_4, Q86UT5 = target: NHERF4_4, Q86UT5
PARD3B_1, Q8TEW8 = target: T5, PARD3B_1, Q8TEW8
PTPN3, P26045 = target: PTPN3, P26045
RHPN1, Q8TCX5 = target: T6, RHPN1, Q8TCX5
SCRIB_3, Q14160 = target: SCRIB_3, Q14160
SHANK1, Q9Y566 = target: T7, SHANK1, Q9Y566
SIPA1L2, Q9P2F8 = target: T8, SIPA1L2, Q9P2F8
SNX27, Q96L92 = target: SNX27, Q96L92

Chain of MAGI2_2, Q86UL8 (Q86UL8 410-522): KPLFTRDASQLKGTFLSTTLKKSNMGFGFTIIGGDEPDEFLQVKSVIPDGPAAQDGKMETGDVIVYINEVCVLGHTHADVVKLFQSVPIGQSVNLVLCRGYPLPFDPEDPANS
Chain of NHERF4_1, Q86UT5-2 (Q86UT5 other isoform, or with tags, fused parts or gaps): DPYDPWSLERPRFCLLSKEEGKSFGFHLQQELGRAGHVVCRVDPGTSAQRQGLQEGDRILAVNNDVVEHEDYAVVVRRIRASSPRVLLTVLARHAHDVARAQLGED
Chain of Inadl_2, Q8NI35 (Q8NI35 238-335): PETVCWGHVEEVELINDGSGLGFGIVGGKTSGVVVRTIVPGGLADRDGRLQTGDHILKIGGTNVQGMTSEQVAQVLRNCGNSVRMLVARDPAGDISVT
Chain of GORASP1, Q9BQQ3 (Q9BQQ3 1-208): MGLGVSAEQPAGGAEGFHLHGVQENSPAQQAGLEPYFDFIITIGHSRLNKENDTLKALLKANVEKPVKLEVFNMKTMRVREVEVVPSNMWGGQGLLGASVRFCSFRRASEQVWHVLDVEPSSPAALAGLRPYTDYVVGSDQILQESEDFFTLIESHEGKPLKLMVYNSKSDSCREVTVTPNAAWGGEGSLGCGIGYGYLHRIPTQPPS
Chain of LDB3, O75112 (O75112 1-94): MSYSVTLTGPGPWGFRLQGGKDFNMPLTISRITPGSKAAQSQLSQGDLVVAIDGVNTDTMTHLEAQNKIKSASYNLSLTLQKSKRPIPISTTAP
Chain of Inadl_6, Q8NI35 (Q8NI35 1058-1167): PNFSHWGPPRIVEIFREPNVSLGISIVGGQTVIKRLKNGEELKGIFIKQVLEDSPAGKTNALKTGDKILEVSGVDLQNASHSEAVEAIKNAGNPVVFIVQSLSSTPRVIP
Chain of FRMPD3, Q5JV73 (Q5JV73 12-100): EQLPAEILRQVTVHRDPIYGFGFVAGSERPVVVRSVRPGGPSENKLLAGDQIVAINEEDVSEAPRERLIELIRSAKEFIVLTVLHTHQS
Chain of NHERF4_4, Q86UT5 (Q86UT5 464-550): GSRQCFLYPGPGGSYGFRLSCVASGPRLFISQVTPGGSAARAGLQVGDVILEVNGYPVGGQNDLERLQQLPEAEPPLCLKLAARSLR
Chain of ARHGEF12, Q9NZN5-2 (Q9NZN5 other isoform, or with tags, fused parts or gaps): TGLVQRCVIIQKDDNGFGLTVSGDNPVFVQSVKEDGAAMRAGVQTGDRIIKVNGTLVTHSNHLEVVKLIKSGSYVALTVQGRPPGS
Chain of Inadl_1, Q8NI35 (Q8NI35 113-229): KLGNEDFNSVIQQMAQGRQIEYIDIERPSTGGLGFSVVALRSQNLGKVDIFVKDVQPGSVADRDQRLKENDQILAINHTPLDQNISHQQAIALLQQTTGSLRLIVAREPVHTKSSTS
Chain of NHERF2_2, Q15599 (Q15599 142-238): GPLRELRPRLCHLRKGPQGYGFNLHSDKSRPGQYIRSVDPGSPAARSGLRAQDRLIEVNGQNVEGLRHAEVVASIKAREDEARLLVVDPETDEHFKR
Chain of PTPN3, P26045 (P26045 505-587): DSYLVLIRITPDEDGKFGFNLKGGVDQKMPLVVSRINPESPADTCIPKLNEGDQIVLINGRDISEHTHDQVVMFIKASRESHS
Chain of MAGI2_6, Q86UL8 (Q86UL8 1141-1229): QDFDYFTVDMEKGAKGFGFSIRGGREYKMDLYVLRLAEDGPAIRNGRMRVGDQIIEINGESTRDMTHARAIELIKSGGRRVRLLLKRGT
Chain of DLG1_2, Q12959 (Q12959 314-412): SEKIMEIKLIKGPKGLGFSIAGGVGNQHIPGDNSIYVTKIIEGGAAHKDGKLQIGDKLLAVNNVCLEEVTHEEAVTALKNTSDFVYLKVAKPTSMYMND
Chain of LNX1_3, Q8TBB1 (Q8TBB1 500-596): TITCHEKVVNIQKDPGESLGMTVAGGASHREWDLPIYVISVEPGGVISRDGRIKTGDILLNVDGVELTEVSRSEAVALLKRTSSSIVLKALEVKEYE
Chain of FRMPD2_1, Q68DX3 (Q68DX3 770-861): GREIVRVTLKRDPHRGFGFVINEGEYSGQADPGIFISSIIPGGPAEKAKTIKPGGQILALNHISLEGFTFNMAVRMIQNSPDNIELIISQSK
Chain of SCRIB_3, Q14160 (Q14160 999-1103): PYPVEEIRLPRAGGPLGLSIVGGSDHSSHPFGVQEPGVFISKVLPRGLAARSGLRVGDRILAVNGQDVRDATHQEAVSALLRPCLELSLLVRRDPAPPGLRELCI
Chain of GRID2IP_2, A4D2P6 (A4D2P6 272-370): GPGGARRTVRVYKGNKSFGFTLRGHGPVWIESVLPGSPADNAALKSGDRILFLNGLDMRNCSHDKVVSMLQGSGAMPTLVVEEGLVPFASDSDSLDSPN
Chain of HTRA2, O43464 (O43464 355-458): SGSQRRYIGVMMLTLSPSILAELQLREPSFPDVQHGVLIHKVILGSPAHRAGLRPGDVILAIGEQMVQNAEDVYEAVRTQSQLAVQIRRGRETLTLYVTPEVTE
Chain of GRIP2_4, Q9C0E4 (Q9C0E4 446-548): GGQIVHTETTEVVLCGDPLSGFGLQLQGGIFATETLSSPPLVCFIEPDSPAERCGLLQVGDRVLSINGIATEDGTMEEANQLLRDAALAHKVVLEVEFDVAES

Row | Binder | pKd (ARHGEF12, Q9NZN5-2) | pKd (DLG1_2, Q12959) | pKd (DLG3_3, Q92796) | pKd (FRMPD2_1, Q68DX3) | pKd (FRMPD3, Q5JV73) | pKd (GORASP1, Q9BQQ3) | pKd (GRID2IP_2, A4D2P6) | pKd (GRIP1_4, Q9Y3R0) | pKd (GRIP2_4, Q9C0E4) | pKd (HTRA2, O43464) | pKd (Inadl_1, Q8NI35) | pKd (Inadl_2, Q8NI35) | pKd (Inadl_6, Q8NI35) | pKd (LDB3, O75112) | pKd (LIN7C, Q9NUP9) | pKd (LNX1_3, Q8TBB1) | pKd (MAGI2_2, Q86UL8) | pKd (MAGI2_6, Q86UL8) | pKd (MPDZ_12, O75970) | pKd (NHERF2_2, Q15599) | other results
1 | QKNRKAQEDL [CES3, Q6UWW8] | below the threshold | below the threshold | below the threshold | below the threshold | below the threshold | below the threshold | below the threshold | below the threshold | below the threshold | below the threshold | below the threshold | below the threshold | below the threshold | below the threshold | below the threshold | below the threshold | below the threshold | below the threshold | below the threshold | below the threshold | pKd (NHERF4_1, Q86UT5-2): below the threshold; pKd (NHERF4_4, Q86UT5): below the threshold; pKd (PARD3B_1, Q8TEW8): below the threshold; pKd (PTPN3, P26045): 3.74; pKd (RHPN1, Q8TCX5): below the threshold; pKd (SCRIB_3, Q14160): below the threshold; pKd (SHANK1, Q9Y566): below the threshold; pKd (SIPA1L2, Q9P2F8): below the threshold; pKd (SNX27, Q96L92): below the threshold
2 | QMNQTLPVQV [EPHB3, P54753] | below the threshold | below the threshold | 3.56 | 4.36 | below the threshold | 3.58 | 3.58 | below the threshold | below the threshold | 3.59 | below the threshold | below the threshold | below the threshold | below the threshold | below the threshold | 3.61 | below the threshold | below the threshold | 3.53 | 3.51 | pKd (NHERF4_1, Q86UT5-2): below the threshold; pKd (NHERF4_4, Q86UT5): 3.92; pKd (PARD3B_1, Q8TEW8): 3.78; pKd (PTPN3, P26045): 3.97; pKd (RHPN1, Q8TCX5): below the threshold; pKd (SCRIB_3, Q14160): 3.48; pKd (SHANK1, Q9Y566): 3.54; pKd (SIPA1L2, Q9P2F8): 3.5; pKd (SNX27, Q96L92): 3.86

Continued, in another order:

Row | pKd (ARHGEF12, Q9NZN5-2) | pKd (DLG1_2, Q12959) | pKd (DLG3_3, Q92796) | pKd (FRMPD2_1, Q68DX3) | pKd (FRMPD3, Q5JV73) | pKd (GORASP1, Q9BQQ3) | pKd (GRID2IP_2, A4D2P6) | pKd (GRIP1_4, Q9Y3R0) | pKd (GRIP2_4, Q9C0E4) | pKd (HTRA2, O43464) | pKd (Inadl_1, Q8NI35) | pKd (Inadl_2, Q8NI35) | pKd (Inadl_6, Q8NI35) | pKd (LDB3, O75112) | pKd (LIN7C, Q9NUP9) | pKd (LNX1_3, Q8TBB1) | pKd (MAGI2_2, Q86UL8) | pKd (MAGI2_6, Q86UL8) | pKd (MPDZ_12, O75970) | pKd (NHERF2_2, Q15599) | Binder | other results
3 | 3.53 | 3.56 | below the threshold | below the threshold | below the threshold | 4.12 | below the threshold | below the threshold | below the threshold | below the threshold | 3.64 | 3.57 | below the threshold | 3.57 | below the threshold | below the threshold | below the threshold | below the threshold | below the threshold | below the threshold | DDEDRLVIEI [ZNF831, Q5JPB2] | pKd (NHERF4_1, Q86UT5-2): below the threshold; pKd (NHERF4_4, Q86UT5): 3.66; pKd (PARD3B_1, Q8TEW8): 3.62; pKd (PTPN3, P26045): below the threshold; pKd (RHPN1, Q8TCX5): 3.53; pKd (SCRIB_3, Q14160): 3.48; pKd (SHANK1, Q9Y566): below the threshold; pKd (SIPA1L2, Q9P2F8): below the threshold; pKd (SNX27, Q96L92): below the threshold
4 | 3.47 | 4.96 | 4.23 | below the threshold | below the threshold | below the threshold | 3.53 | below the threshold | below the threshold | below the threshold | below the threshold | below the threshold | below the threshold | below the threshold | below the threshold | below the threshold | 4.81 | 4.09 | below the threshold | below the threshold | PKRSFIESNV [TANC1, Q9C0D5] | pKd (NHERF4_1, Q86UT5-2): below the threshold; pKd (NHERF4_4, Q86UT5): 3.83; pKd (PARD3B_1, Q8TEW8): below the threshold; pKd (PTPN3, P26045): 4.57; pKd (RHPN1, Q8TCX5): 4.38; pKd (SCRIB_3, Q14160): 5.05; pKd (SHANK1, Q9Y566): below the threshold; pKd (SIPA1L2, Q9P2F8): below the threshold; pKd (SNX27, Q96L92): 5.51
5 | below the threshold | below the threshold | below the threshold | below the threshold | below the threshold | below the threshold | below the threshold | below the threshold | below the threshold | below the threshold | below the threshold | below the threshold | below the threshold | 4.46 | below the threshold | below the threshold | below the threshold | below the threshold | below the threshold | 3.96 | IPLDGETEEL [MYOZ1, Q9NP98] | pKd (NHERF4_1, Q86UT5-2): 4.2; pKd (NHERF4_4, Q86UT5): below the threshold; pKd (PARD3B_1, Q8TEW8): below the threshold; pKd (PTPN3, P26045): 4.04; pKd (RHPN1, Q8TCX5): below the threshold; pKd (SCRIB_3, Q14160): below the threshold; pKd (SHANK1, Q9Y566): below the threshold; pKd (SIPA1L2, Q9P2F8): below the threshold; pKd (SNX27, Q96L92): 3.69
